These results are taken from patent US20240159767A1.

In the experiment the target is PKA substrate fused to MinD (phosphorylated form) (Escherichia coli). The experiment is described as follows: power ratio of live-cell fluorescence oscillations, saturating isoprenaline.

On to “FHA1-mCerulean (from UniProt P22216 22-162)”, for which the fold increase of the power ratio of the FHA1 signal to the MinDE carrier after a saturating dose of isoprenaline against resting cells is < 7 fold.
